Reference: the supplement of paper PMC9170038

Test system: MS2 coat protein
Test: apparent KD of MS2 coat protein; higher = weaker reporter binding
Conditions: Eterna round: R107
In short: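 Values are apparent KD, taken as the median for each design of fits to normalised binding curves from individual clusters. The designed RNA switches were transcribed on-chip from Illumina sequencing clusters and exposed to SNAP-549-labelled MS2 coat protein at twofold increasing amounts from 0.7 or 1.5 nM to 3 µM. Titration used 100 mM Tris-HCl pH 7.5, 80 mM KCl and 4 mM MgCl2, without or with constant ligand.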

[1] = input ligand: theophylline 20 uM
[2] = input ligand: theophylline 2 mM
[3] = input ligand: tryptophan 2.4 mM

Sequence | apparent KD of MS2 coat protein (input ligand: arginine 13.2 mM) | apparent KD of MS2 coat protein (input ligand: none) | apparent KD of MS2 coat protein [1] | apparent KD of MS2 coat protein [2] | apparent KD of MS2 coat protein [3]
CUCAUCCACGCGGCCGCCACUAUAUUGUGGUGUGGGUGUGACGUAUUACAUGAGGAUCACCCAUGUAGGACCGGGCGUGGAUGAG [Stork] | 188 nM | 408 nM | 525 nM | 1100 nM | 534 nM
CUCCCGUGGUCGGCCGCCACUGGAGGCCUCGCGCGACAUGAGGAUCACCCAUGUUGGCCCGGCGUCAGGACCGGGAUCGCGUGAG [#1 Same State - Tryptophan B Attempt #9 (HarryS)] | 11.8 nM | 11 nM | 10.3 nM | 12.1 nM | 10.8 nM
CUCCCGUGGUCGGCCGCCACUGGAGGCCUUGCGCGACAUGAGGAUCACCCAUGUUGGCCCGGCGUCAGGACCGGGAUCGCGUGAG [#1 Same State - Tryptophan B Attempt #10 (HarryS)] | 8.86 nM | 14.4 nM | 18.8 nM | 12.2 nM | 10.1 nM
CUGUACAUCUCGGCCGCCACUGCAACAUGUACACAUGGACAUGUACAUGAGGAUCACCCAUGUGGCAGGACCGGGAGGUGUGCAG [SSTryp B #28] | 99.8 nM |  | 211 nM | 309 nM | 
CUGUACAUCUCGGCCGCCACUGCUGACAUGGGAGUCACCCAUGUCCACAUGAGGAUCACCCAUGUCAGGACCGGGAGGUGUGCAG [SSTryp B #25] | 87.4 nM |  | 272 nM | 287 nM | 
CUUGGCUGUGCGGCCGCCACUGACUCAUCCUGCAUUACAUGAGGAUCACCCAUGUUGCGGCCUCCCAGGACCGGGCAUAGCCUGC [Veered] | 102 nM |  | 397 nM | 673 nM | 
GAAGGAACCGGAAGGAGCGGGUCCUUAGCCACUACAUGAGGAUCACCCAUGUCCGGGAGGUCCCAGGUAGGUCGCCGGUCUUAAA [Gelece] | 63.9 nM | 277 nM | 324 nM | 934 nM | 267 nM
GAAGGAGAGUGAUCCACUCCUUCUCUGGAAGGAGCGAGCGAAAGCUCAGGUAGGUCGCCAGAAACAUGAGGAUCACCCAUGUAAU [(A)''-(M)'-(A)'-(Arg1)-(Arg2)-(M1)-(M2)_Design7] | 61.2 nM | 104 nM | 92.6 nM | 123 nM | 82.3 nM
GACAUGAGGAUCACCCAUGUACCGCGAGAAGGAGCGCGGAUAAACGCAGGUAGGUCGCUCGUGGGCUUUUAUUCAAUCGAAAGCU [Zaesar] | 26.8 nM | 50.5 nM | 106 nM | 165 nM | 48 nM
GACCGGUUAUAGUGCGAUUGUCUUGUGGAAGGAGCGCAGAGGACUGCAGGUAGGUCGCCACAUGAGGAUCACCCAUGUCAGGAUA [Tirevete] | 33.8 nM | 23.7 nM | 33.4 nM | 43.9 nM | 22.3 nM
GACGCAUGAGUUGUAAAAGCUCAUGGGUCGCGAGGACCGGUACGGCCGCCACUCGGCUGUACAUGAGGAUCACCCAUGUCAGGGU [#1 Same State - Tryptophan A Attempt #28 (HarryS)] | 154 nM |  | 434 nM | 886 nM | 
GACGCAUGAGUUGUAACAGCUCAUGGGUCGCGAGGACCGGUACGGCCGCCACUCGGCUGUACAUGAGGAUCACCCAUGUCAGGGU [#1 Same State - Tryptophan A Attempt #29 (HarryS)] | 24.7 nM | 346 nM | 1320 nM | 1310 nM | 451 nM
GAGACAUCGGGAAGGAGCGCAUCCAAACCACACAUGAGGAUCACCCAUGUAUAAAUAUGCAUGCAGGUAGGUCGCCCGGUAUCCC [Tiisqure] | 26.5 nM | 27.8 nM | 40.2 nM | 35 nM | 28.9 nM
GAGCUCGUGGACUGGCGUGCUCCGCUCCGUCGAGGACCGGUACGGCCGCCACUCGACAUGAGGAUCACCCAUGUGCGAGCUCGCU [#1 Exclusion - Tryptophan A Attempt #22 (HarryS)] | 11.4 nM | 46.2 nM | 113 nM | 117 nM | 21.4 nM
GAGUCCGCGGCGGCCGCCACUCGCGGCGCCACAUGGCGCCGGGACAUGAGGAUCACCCAUGUCCCGAGGACCGGGCCGAUCCUCA [Same State Typrtophan B GF4] | 16.6 nM | 18.1 nM | 35.6 nM | 33.9 nM | 14.5 nM
GAUAGUUGAAGGGAUACCAGCCUGGACAUGAGGAUCACCCAUGUAGCAUGUUUGAAACUGGGCCCUUGGCAGCCCAUAUUGUGUA [#11 Same State - Theophylline B] | 16.6 nM |  | 25.4 nM |  | 22.8 nM
GAUCCGUACCAGACCUUCAAUGGACUCAGUCGAGGACCGGUACGGCCGCCACUCGGAGAAGAACAUGAGGAUCACCCAUGUGAUG [theeternabot_exclusion_MS2_Trp_A_36] | 23.9 nM |  | 47 nM | 34.9 nM | 
GAUUGGUAUAGAAGGAGCGUCGAAAAUGGGUAAACAUGAGGAUCACCCAUGUAAAGGGAACGACAGGUAGGUCGCUAUAUUAAUC [AstromonsSSArgB#30] | 146 nM | 174 nM | 256 nM | 272 nM | 200 nM
GCACCAGGUACGGAUACCAGAAUUUGCCAAUUGGGUGAACAUGAGGAUCACCCAUGUUAUUUCCCUUGGCAGCCGUACCUGGUGC [ETB NP+V+V2 #10] | 8.88 nM |  | 13.2 nM |  | 9.45 nM

Sequence | apparent KD of MS2 coat protein (input ligand: arginine 13.2 mM) | apparent KD of MS2 coat protein (input ligand: none) | apparent KD of MS2 coat protein [1] | apparent KD of MS2 coat protein [2] | apparent KD of MS2 coat protein [3]
GCACCAGGUACGGAUACCAGACAUUGCCGUUAGGGUGAACAUGAGGAUCACCCAUGUUUUGUCCCUUGGCAGCCGUACCUGGUGC [ETB NP+V+V2 #7 Same Structure] | 9.58 nM | 9.57 nM | 14.7 nM | 86.5 nM | 9.85 nM
GCACCAGGUACGGAUACCAGCUAUAGGCCCAAUGGGCGACAUGAGGAUCACCCAUGUAAUGGCCCUUGGCAGCUGUACCUGGUGC [SSThB NP+V+V2 #11 +-Same Structure] | 61.6 nM |  | 67.2 nM |  | 99.8 nM
GCACGACAUGAGGAUCACCCAUGUGCAGAUACCAGUAGGAUAUCCUACCCUUGGCAGCUGAGUGGAUCCGGAGGACCAUGGGUAA [Same State Theophylline A GF8] | 32.8 nM |  | 61.7 nM |  | 34.7 nM
GCAUCCUAGUCGGCCGCCACUGCAACAUGAGGAUCACCCAUGUCAGGCCUCAUGUGUCCUGGUAGCAGGACCGGGACUAGGAUGC [(T1)-(M1)-(M2)-(T)''-(M)'-(T)'-(T2)_Design4_2/18/17] | 34 nM |  | 47.1 nM | 52 nM | 
GCCGCGGCCGCGAUACACAUGGGUGUGUAACGAGGACCGGUACGGCCGCCACUCGAGAUGGUGCACAUGAGGAUCACCCAUGUGC [Exclusion Tryp A GF15] | 10.3 nM | 14.9 nM | 14.1 nM | 19.3 nM | 12.1 nM
GCCUCCAGCCGAAGGAGCGCUAGAAGGUGACAUGAGGAUCACCCAUGUGUGUGAUGUGGCUAGCAGGUAGGUCGCGGAGGAGGCA [Exclusion - Arginine B (Freestyle 22)] | 53.7 nM | 109 nM | 105 nM | 74.1 nM | 74.8 nM
GCGGGACUUUCGGCCGCCACUGAGAGAGUCGUGUGAACAUGAGGAUCACCCAUGUAAUAUAUAUACAGGACCGGGAGGGUUGCGC [4.Q] | 5.64 nM | 13.4 nM | 17.2 nM | 14.7 nM | 12.8 nM
GCUACAUGAGGAUCACCCAUGUCAGCUACACGAGGACCGGUACGGCCGCCACUCGGUAGCGCUCAUCCUCGUGUGUAAGUCAAGU [Xedier] | 48.2 nM | 81.6 nM | 116 nM | 97.5 nM | 23.5 nM
GCUACAUGAGGAUCACCCAUGUGUACUGAAGGAGCGGCGAAAACGCCAGGUAGGUCGCAGUAUGUGGCUCUGGGCACGAGAUGGC [#02 Same State - Arginine A] | 27 nM | 37.3 nM | 40 nM | 41.3 nM | 30.5 nM
GCUACAUGAGGAUCACCCAUGUGUACUGAAGGAGCGGCGGAAACGCCAGGUAGGUCGCAGUAUGUGGCUCUGGGCACGAGAUGGC [SSAA NP+V+V2 #1] | 20.1 nM | 33.6 nM | 39.4 nM | 35.9 nM | 33.7 nM
GCUAGGUCUACGGCCGCCACUAGACGUGGGUAAGACAUGAGGAUCACCCAUGUACUACAGGCGAAUAGGACCGGGUAGACCUAGC [SSTB NP+V+V2 #12 Same Structure] | 58.2 nM | 36.4 nM | 55 nM | 46.1 nM | 15.1 nM
GCUCGUUGCAUGGAUACCAGUUGAUAGGCCGCCUCCGGAUACAUGAGGAUCACCCAUGUCAACCCUUGGCAGCCACCCAAUAGGG [theeternabot_exclusion_MS2_Theo_B_27] | 10.4 nM |  | 13.7 nM |  | 10.6 nM
GCUGCACAUUCGGCCGCCACUGCUGUUACAGGAAGCUAUAGCUCACAUGAGGAUCACCCAUGUCCCAGGACCGGGAAAGUAUGGA [theeternabot_sameState_MS2_Trp_B_39] | 41.2 nM |  | 79.2 nM | 74.2 nM | 
GCUGUACCAUGAAGGAGCGCUCACGCAGUUGCGGGUACAUGAGGAUCACCCAUGUUGGGUGAGCAGGUAGGUCGCAUGGUACAGC [SSAB #17] | 227 nM | 237 nM | 193 nM | 230 nM | 215 nM
GGACAACAUGAGGAUCACCCAUGUCCUGAUACCAGUCAGCGCAGUGACCCUUGGCAGCAGACGGAUACGAAAUAACUGAGAGAUA [theeternabot_sameState_MS2_Theo_A_44] | 29.2 nM |  | 65 nM |  | 62 nM
GGACCAGGGAGCGAUACCAGCUUGAGUGUGCUGGCCAGGCACAUGAGGAUCACCCAUGUAAGCCCUUGGCAGCGCUCCCUGGUCC [#1 Exclusion - Theophylline B Attempt #27 (HarryS)] | 6.87 nM | 9.65 nM | 15.3 nM | 13.9 nM | 11.1 nM
GGACUAACCAGAAGGAGCGACACAGCAGAAACUGCAAAUCCUCCGCACGAGGAUCACCCGUGUCAGGUAGGUCGCUGGUUAGUCG [ArgBX 28] | 37.4 nM | 49.5 nM | 55.9 nM | 71.6 nM | 42.7 nM
GGACUAACCAGAAGGAGCGGCACGCAGAAACUGCAAAUUCCUCCGCACGAGGAUCACCCGUGUCAGGUAGGUCGCUGGUUAGUCG [ArgBX 28] | 20.8 nM | 19.7 nM | 25.9 nM | 24 nM | 22.6 nM
GGAGGCCUUAGGGAUACCAGCUAAGUUGAGUACAUGAGGAUCACCCAUGUGUUCCCAGAGAGCCCUUGGCAGCCCUCAUCCGUUC [theeternabot_sameState_MS2_Theo_B_7] | 14.5 nM |  | 13.9 nM |  | 12.4 nM
